From patent publication US20180155451A1 (published 2018)

Biological target: T1, FcγRIa extracellular domain with C-terminal His tag (human, UniProt P12314 16-292)
T1 construct: extracellular domain; also called FcgRI; CD64; not shown: His tag at the C terminus
Assay: SPR Biacore, relative FcγRIa binding vs GpH7-B3/GpL16-k0

T1 sequence (P12314 16-292): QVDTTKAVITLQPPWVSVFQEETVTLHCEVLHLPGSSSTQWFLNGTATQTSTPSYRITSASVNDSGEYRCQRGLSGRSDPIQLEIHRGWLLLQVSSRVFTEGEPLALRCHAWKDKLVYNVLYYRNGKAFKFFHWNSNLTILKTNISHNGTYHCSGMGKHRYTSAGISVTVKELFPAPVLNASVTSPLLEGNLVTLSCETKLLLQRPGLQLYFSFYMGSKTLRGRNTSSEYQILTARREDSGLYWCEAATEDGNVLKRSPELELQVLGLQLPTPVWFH

Ho/Con_1a	Binder
96.5 % of HoCon Ab (=100)	GpH7-B3 variant Y300_12R/GpL16-k0 (antibody, human IgG1, kappa, mutation in both H chains; also called Ho Ab Y300_12R; Y300R) heavy: not shown light: DIVMTQSPLSLPVTPGEPASISCQASESLVHSNRNTYLHWYLQKPGQSPQLLIYKVSNRFSGVPDRFSGSGSGTDFTLKISRVEAEDVGVYYCSQNTHVPPTFGQGTKVEIERTVAAPSVFIFPPSDEQLKSGTASVVCLLNNFYPREAKVQWKVDNALQSGNSQESVTEQDSKDSTYSLSSTLTLSKADYEKHKVYACEVTHQGLSSPVTKSFNRGEC

Biological target: T1, FcγRIa extracellular domain with …
Assay: SPR Biacore, relative FcγRIa binding vs GpH7-A5/GpH7-B3/GpL16-k0

He/Con_1a	Binder
109 % of HeCon Ab (=100)	GpH7-A5/GpH7-B3 variant S298_11K/GpL16-k0 (antibody, human IgG1, kappa, mutation in one H chain only; also called He Ab S298_11K; S298K) heavy 1: not shown heavy 2: not shown light: DIVMTQSPLSLPVTPGEPASISCQASESLVHSNRNTYLHWYLQKPGQSPQLLIYKVSNRFSGVPDRFSGSGSGTDFTLKISRVEAEDVGVYYCSQNTHVPPTFGQGTKVEIERTVAAPSVFIFPPSDEQLKSGTASVVCLLNNFYPREAKVQWKVDNALQSGNSQESVTEQDSKDSTYSLSSTLTLSKADYEKHKVYACEVTHQGLSSPVTKSFNRGEC
101 % of HeCon Ab (=100)	GpH7-A5/GpH7-B3 variant S267_08L/GpL16-k0 (antibody, human IgG1, kappa, mutation in one H chain only; also called He Ab S267_08L; S267L) heavy 1: not shown heavy 2: not shown light: DIVMTQSPLSLPVTPGEPASISCQASESLVHSNRNTYLHWYLQKPGQSPQLLIYKVSNRFSGVPDRFSGSGSGTDFTLKISRVEAEDVGVYYCSQNTHVPPTFGQGTKVEIERTVAAPSVFIFPPSDEQLKSGTASVVCLLNNFYPREAKVQWKVDNALQSGNSQESVTEQDSKDSTYSLSSTLTLSKADYEKHKVYACEVTHQGLSSPVTKSFNRGEC
107 % of HeCon Ab (=100)	GpH7-A5/GpH7-B3 variant S298_02A/GpL16-k0 (antibody, human IgG1, kappa, mutation in one H chain only; also called He Ab S298_02A; S298A) heavy 1: not shown heavy 2: not shown light: DIVMTQSPLSLPVTPGEPASISCQASESLVHSNRNTYLHWYLQKPGQSPQLLIYKVSNRFSGVPDRFSGSGSGTDFTLKISRVEAEDVGVYYCSQNTHVPPTFGQGTKVEIERTVAAPSVFIFPPSDEQLKSGTASVVCLLNNFYPREAKVQWKVDNALQSGNSQESVTEQDSKDSTYSLSSTLTLSKADYEKHKVYACEVTHQGLSSPVTKSFNRGEC
106 % of HeCon Ab (=100)	GpH7-A5/GpH7-B3 variant S267_03V/GpL16-k0 (antibody, human IgG1, kappa, mutation in one H chain only; also called He Ab S267_03V; S267V) heavy 1: not shown heavy 2: not shown light: DIVMTQSPLSLPVTPGEPASISCQASESLVHSNRNTYLHWYLQKPGQSPQLLIYKVSNRFSGVPDRFSGSGSGTDFTLKISRVEAEDVGVYYCSQNTHVPPTFGQGTKVEIERTVAAPSVFIFPPSDEQLKSGTASVVCLLNNFYPREAKVQWKVDNALQSGNSQESVTEQDSKDSTYSLSSTLTLSKADYEKHKVYACEVTHQGLSSPVTKSFNRGEC
101 % of HeCon Ab (=100)	GpH7-A5/GpH7-B3 variant S239_14T/GpL16-k0 (antibody, human IgG1, kappa, mutation in one H chain only; also called He Ab S239_14T; S239T) heavy 1: not shown heavy 2: not shown light: DIVMTQSPLSLPVTPGEPASISCQASESLVHSNRNTYLHWYLQKPGQSPQLLIYKVSNRFSGVPDRFSGSGSGTDFTLKISRVEAEDVGVYYCSQNTHVPPTFGQGTKVEIERTVAAPSVFIFPPSDEQLKSGTASVVCLLNNFYPREAKVQWKVDNALQSGNSQESVTEQDSKDSTYSLSSTLTLSKADYEKHKVYACEVTHQGLSSPVTKSFNRGEC
101 % of HeCon Ab (=100)	GpH7-A5/GpH7-B3 variant S239_18N/GpL16-k0 (antibody, human IgG1, kappa, mutation in one H chain only; also called He Ab S239_18N; S239N) heavy 1: not shown heavy 2: not shown light: DIVMTQSPLSLPVTPGEPASISCQASESLVHSNRNTYLHWYLQKPGQSPQLLIYKVSNRFSGVPDRFSGSGSGTDFTLKISRVEAEDVGVYYCSQNTHVPPTFGQGTKVEIERTVAAPSVFIFPPSDEQLKSGTASVVCLLNNFYPREAKVQWKVDNALQSGNSQESVTEQDSKDSTYSLSSTLTLSKADYEKHKVYACEVTHQGLSSPVTKSFNRGEC
108 % of HeCon Ab (=100)	GpH7-A5/GpH7-B3 variant S298_10E/GpL16-k0 (antibody, human IgG1, kappa, mutation in one H chain only; also called He Ab S298_10E; S298E) heavy 1: not shown heavy 2: not shown light: DIVMTQSPLSLPVTPGEPASISCQASESLVHSNRNTYLHWYLQKPGQSPQLLIYKVSNRFSGVPDRFSGSGSGTDFTLKISRVEAEDVGVYYCSQNTHVPPTFGQGTKVEIERTVAAPSVFIFPPSDEQLKSGTASVVCLLNNFYPREAKVQWKVDNALQSGNSQESVTEQDSKDSTYSLSSTLTLSKADYEKHKVYACEVTHQGLSSPVTKSFNRGEC
107 % of HeCon Ab (=100)	GpH7-A5/GpH7-B3 variant S298_08L/GpL16-k0 (antibody, human IgG1, kappa, mutation in one H chain only; also called He Ab S298_08L; S298L) heavy 1: not shown heavy 2: not shown light: DIVMTQSPLSLPVTPGEPASISCQASESLVHSNRNTYLHWYLQKPGQSPQLLIYKVSNRFSGVPDRFSGSGSGTDFTLKISRVEAEDVGVYYCSQNTHVPPTFGQGTKVEIERTVAAPSVFIFPPSDEQLKSGTASVVCLLNNFYPREAKVQWKVDNALQSGNSQESVTEQDSKDSTYSLSSTLTLSKADYEKHKVYACEVTHQGLSSPVTKSFNRGEC
110 % of HeCon Ab (=100)	GpH7-A5/GpH7-B3 variant S298_03V/GpL16-k0 (antibody, human IgG1, kappa, mutation in one H chain only; also called He Ab S298_03V; S298V) heavy 1: not shown heavy 2: not shown light: DIVMTQSPLSLPVTPGEPASISCQASESLVHSNRNTYLHWYLQKPGQSPQLLIYKVSNRFSGVPDRFSGSGSGTDFTLKISRVEAEDVGVYYCSQNTHVPPTFGQGTKVEIERTVAAPSVFIFPPSDEQLKSGTASVVCLLNNFYPREAKVQWKVDNALQSGNSQESVTEQDSKDSTYSLSSTLTLSKADYEKHKVYACEVTHQGLSSPVTKSFNRGEC
104 % of HeCon Ab (=100)	GpH7-A5/GpH7-B3 variant S298_01G/GpL16-k0 (antibody, human IgG1, kappa, mutation in one H chain only; also called He Ab S298_01G; S298G) heavy 1: not shown heavy 2: not shown light: DIVMTQSPLSLPVTPGEPASISCQASESLVHSNRNTYLHWYLQKPGQSPQLLIYKVSNRFSGVPDRFSGSGSGTDFTLKISRVEAEDVGVYYCSQNTHVPPTFGQGTKVEIERTVAAPSVFIFPPSDEQLKSGTASVVCLLNNFYPREAKVQWKVDNALQSGNSQESVTEQDSKDSTYSLSSTLTLSKADYEKHKVYACEVTHQGLSSPVTKSFNRGEC
